# Results published in paper PMC10953500 (2024).
# B1: COVA2-15 monomeric IgA2 (antibody)
# chain 1: QVQLLESGGGLVQPGGSLRLSCAASGFTFSSYAMSWVRQAPGKGLEWASAISGSGGSTYYADSVEGRFTISRDNSKNTLYLQMNSLRAEDTAVYYCAKDTGYCGDDCYIKLIRGGPDYWGQGTLVTVSS
# chain 2: DIVMTQSPLSLPVTLGQPASISCRSSQSLVYSDGNTFLNWFQQRPGQSPRRLIYQVSNRDSGVPDRFSGSGSGTDFTLKISRVEAEDVGVYYCMQGTHWPRTFGQGTKLEIK
# Columns and labels:
# [1] = molecular target: recombinant CD89 (Fc-alpha receptor, FcαRI) with C-terminal His-tag (UniProt P24071 22-227); experiment: SPR
# [2] = molecular target: receptor binding domain (RBD) of the SARS-CoV-2 spike protein with C-terminal 6xHis-tag (SARS-CoV-2, UniProt P0DTC2 319-541); experiment: SPR
# Sequence of recombinant CD89 (Fc-alpha receptor, FcαRI) with C-terminal His-tag (P24071 22-227): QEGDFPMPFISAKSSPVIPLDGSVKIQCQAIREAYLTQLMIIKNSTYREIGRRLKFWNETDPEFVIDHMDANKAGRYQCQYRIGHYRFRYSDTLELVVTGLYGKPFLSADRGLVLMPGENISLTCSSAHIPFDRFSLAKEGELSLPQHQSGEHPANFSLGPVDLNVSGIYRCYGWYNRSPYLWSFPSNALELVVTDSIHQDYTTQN
binder,measurement,setting,value
B1,Kd,[1],35.7 nM
same,Kd,[2],1.56 nM
